Reference: patent publication US8034784B2, “Method of suppressing or reducing IL-TIF-induced inflammation, or treating associated conditions thereof, using Zcytor16” (ZymoGenetics, Inc., priority 1999, dated 2011)

B1: zcytor16-Fc4: soluble zcytor16 polypeptide (residue 22 to 231 of SEQ ID NO:2; SEQ ID NO:13) fused to a C-terminal Fc4 tag (protein)
chain: TQSTHESLKPQRVQFQSRNFHNILQWQPGRALTGNSSVYFVQYKIYGQRQWKNKEDCWGTQELSCDLTSETSDIQEPYYGRVRAASAGSYSEWSMTPRFTPWWETKIDPPVMNITQVNGSLLVILHAPNLPYRYQKEKNVSIEDYYELLYRVFIINNSLEKEQKVYEGAHRAVEIEALTPHSSYCVVAEIYQPMLDRRSQRSEERCVEIPEPRSSDKTHTCPPCPAPEAEGAPSVFLFPPKPKDTLMISRTPEVTCVVVDVSHEDPEVKFNWYVDGVEVHNAKTKPREEQYNSTYRVVSVLTVLHQDWLNGKEYKCKVSNKALPSSIEKTISKAKGQPREPQVYTLPPSRDELTKNQVSLTCLVKGFYPSDIAVEWESNGQPENNYKTTPPVLDSDGSFFLYSKLTVDKSRWQQGNVFSCSVMHEALHNHYTQKSLSLSPGK
B2: IL-TIF-CEE: human IL-TIF polypeptide (SEQ ID NO:15) containing C-terminal GluGlu (EE) tag, purified from BHK cells; ligand of zcytor16 (protein, listed as Homo sapiens)
chain: MAALQKSVSSFLMGTLATSCLLLLALLVQGGAAAPISSHCRLDKSNFQQPYITNRTFMLAKEASLADNNTDVRLIGEKLFHGVSMSERCYLMKQVLNFTLEEVLFPQSDRFQPYMQEVVPFLARLSNRLSTCHIEGDDLHIQRNVQKLKDTVKKLGESGEIKAIGELDLLFMSLRNACI
modifications: C-terminal GluGlu tag
notes: ligand of zcytor16

Tests used:
IL-TIF [1] = biological target: T1, IL-TIF (Homo sapiens, UniProt Q9GZX6); assay: COS cell secretion trap binding assay; design: expressed in transfected cells; host or cells: COS cells, pZP7 expression vector; settings: 1-3 μg/ml zcytor16sR-Fc4, COS cells transfected with human IL-TIF cDNA
T1 sequence (Q9GZX6 34-179): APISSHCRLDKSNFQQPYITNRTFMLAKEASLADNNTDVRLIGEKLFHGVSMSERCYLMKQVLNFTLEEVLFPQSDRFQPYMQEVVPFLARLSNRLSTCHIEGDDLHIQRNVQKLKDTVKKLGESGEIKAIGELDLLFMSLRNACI
Procedure: COS cell transfections were performed as follows: A mixture of 0.5 μg DNA and 5 μl lipofectamine (Gibco BRL) in 92 ul serum free DMEM media (55 mg sodium pyruvate, 146 mg L-glutamine, 5 mg transferrin, 2.5 mg insulin, 1 μg selenium and 5 mg fetuin in 500 ml DMEM) was incubated at room temperature for 30 minutes and then 400 μl serum free DMEM media added. A 500 μl mixture was added onto COS cells plated on 12-well tissue culture plate at 1.5×10^5 COS cells/well and previously incubated for 5 hours at 37° C. An additional 500 μl 20% FBS DMEM media (100 ml FBS, 55 mg sodium pyruvate and 146 mg L-glutamine in 500 ml DMEM) was added and the plates were incubated overnight.
The secretion trap was performed as follows: Media was rinsed off cells with PBS and fixed for 15 minutes with 1.8% Formaldehyde in PBS. Cells were then washed with TNT (0.1M Tris-HCl, 0.15M NaCl, and 0.05% Tween-20 in H2O). Cells were permeated with 0.1% Triton-X in PBS for 15 minutes and washed again with TNT. […]

IL-TIF [2] = biological target: T1, IL-TIF; assay: Antagonism of IL-TIF-induced proliferation of BaF3/CRF2-4/zcytor11 cells (Alamar Blue); type: cell-based; design: made in house; host or cells: BHK 570 cells, pHZ200-CEE vector, purified from conditioned media; settings: zcytor16 at 10 μg/ml; IL-TIF at all concentrations (0.06-50 ng/ml)
Description: Purified IL-TIF-CEE (Example 19) was used to test for the presence of proliferation activity as described below. Purified zcytor16-Fc4 (Example 11) was used to antagonize the proliferative response of the IL-TIF in this assay as described below.
BaF3/CRF2-4/zcytor11 cells were spun down and washed in the complete media, described in Example 7A above, but without mIL-3 (hereinafter referred to as “mIL-3 free media”). The cells were spun and washed 3 times to ensure the removal of the mIL-3. Cells were then counted in a hemacytometer. Cells were plated in a 96-well format at 5000 cells per well in a volume of 100 μl per well using the mIL-3 free media.
Proliferation of the BaF3/CRF2-4/zcytor11 cells was assessed using IL-TIF-CEE protein diluted with mIL-3 free media to 50, 10, 2, 1, 0.5, 0.25, 0.13, 0.06 ng/ml concentrations. 100 μl of the diluted protein was added to the BaF3/CRF2-4/zcytor11 cells. […] Alamar Blue gives a fluourometric readout based on number of live cells, and is thus a direct measurement of cell proliferation in comparison to a negative control. […] Plates were read on the Finax™ plate reader (Molecular Devices Sunnyvale, Calif.) using the SoftMax™ Pro program, at wavelengths 544 (Excitation) and 590 (Emmission). […] The response, as measured, was approximately 15-fold over background at the high end of 50 ng/ml down to a 2-fold induction at the low end of 0.06 ng/ml. […]

IL-TIF [3] = biological target: T1, IL-TIF; assay: Inhibition of IL-TIF activation of luciferase reporter in MES 13 cells by zcytor16-Fc4; type: cell-based; settings: even at the highest dose of IL-TIF used
Procedure: MES 13 cells (ATCC No. CRL-1927) were plated at 10,000 cells/well in 96-well tissue culture clusters (Costar) in DMEM growth medium (Life Technologies) supplemented with pyruvate and 10% serum (HyClone). Next day, the medium was switched to serum free DMEM medium by substituting 0.1% BSA (Fraction V; Sigma) for serum. This medium also contained the adenoviral construct KZ136 (below) that encodes a luciferase reporter mini-gene driven by SRE and STAT elements, at a 1000:1 multiplicity of infection (m.o.i.), i.e. 1000 adenoviral particles per cell. After allowing 24 h for the incorporation of the adenoviral construct in the cells, the media were changed and replaced with serum-free media. Human recombinant IL-TIF with or without a recombinant zcytor16-Fc4 fusion was added at the indicated final concentration in the well (as described in Table 11, below). Dilutions of both the IL-TIF and zcytor16-Fc4 were performed in serum-free medium. 0.1% BSA was added for a basal assay control. 4 h later, cells were lysed and luciferase activity, denoting activation of the reporter gene, was determined in the lysate using an Luciferase Assay System assay kit (Promega) and a Labsystems Luminoskan luminometer (Labsystems, Helsinki, Finland). Activity was expressed as luciferase units (LU) in the lysate.
The construction of the adenoviral KZ136 vector was as follows. […]

[4] = test system: BaF3/CRF2-4/zcytor11 cells; assay: Alamar Blue proliferation assay, BaF3/CRF2-4/zcytor11 cells; type: cell-based, murine; settings: 3 days, then Alamar Blue
Procedure: BaF3, an interleukin-3 (IL-3) dependent pre-lymphoid cell line derived from murine bone marrow (Palacios and Steinmetz, Cell 41: 727-734, 1985; Mathey-Prevot et al., Mol. Cell. Biol. 6: 4133-4135, 1986), was maintained in complete media (RPMI medium (JRH Bioscience Inc., Lenexa, Kans.) supplemented with 10% heat-inactivated fetal calf serum, 2 ng/ml murine IL-3 (mIL-3) (R & D, Minneapolis, Minn.), 2 mM L-glutaMax-1™ (Gibco BRL), 1 mM Sodium Pyruvate (Gibco BRL), and PSN antibiotics (GIBCO BRL)). Prior to electroporation, CRF2-4/pZP7P was prepared and purified using a Qiagen Maxi Prep kit (Qiagen) as per manufacturer's instructions. […]
BaF3/CRF2-4/zcytor11 cells were spun down and washed in the complete media, described in Example 7A above, but without mIL-3 (hereinafter referred to as “mIL-3 free media”). […] Cells were then counted in a hemacytometer. […]
Proliferation of the BaF3/CRF2-4/zcytor11 cells was assessed using IL-TIF-CEE protein diluted with mIL-3 free media to 50, 10, 2, 1, 0.5, 0.25, 0.13, 0.06 ng/ml concentrations. […] Alamar Blue gives a fluourometric readout based on number of live cells, and is thus a direct measurement of cell proliferation in comparison to a negative control. […] Plates were read on the Finax™ plate reader (Molecular Devices Sunnyvale, Calif.) using the SoftMax™ Pro program, at wavelengths 544 (Excitation) and 590 (Emmission). […]

Row | Molecule | binding of zcytor16sR/Fc4 to COS cells transfected with human IL-TIF (IL-TIF [1]) | proliferative response to IL-TIF in the presence of zcytor16 (IL-TIF [2]) | antagonism of the response of MES 13 cells to IL-TIF (IL-TIF [3]) | proliferative response (induction) ([4]; IL-TIF-CEE 0.06 ng/ml) [fold induction] | proliferative response over background ([4]; IL-TIF-CEE 50 ng/ml)
1 | B1 | positive binding | brought down to background | effectively blocks the response to IL-TIF |  | 
2 | B2 |  |  |  | 2 | approximately 15 fold over background
